B1: FCHO1 (parent)
chain: HLELTRKLQDLIKDVLRYGEEQLK

Variants of: B1
Test: protein stability index of a GFP-peptide fusion (GPS, HEK-293T) (PSI 1-6); higher = more stable
Details: c terminus: a fixed tail appended
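Further: lentivirally expressed fusions sorted by FACS into six bins by GFP to DsRed ratio, PSI derived from sequencing read proportions per bin multiplied by bin number.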

Variant	protein stability index
HLELTRKLQDLIKDVLMYGEEQLK [R17M]	1.98
HLELTRKLQDLIKDVLSYGEEQLK [R17S]	1.46
HLELTRKLQDLIKDVLTYGEEQLK [R17T]	1.54
HLELTRKLQDLIKDVLGYGEEQLK [R17G]	1.58
HLELTMKLQDLIKDVLRYGEEQLK [R6M]	1.46
HLELTKKLQDLIKDVLRYGEEQLK [R6K]	2.69
HLELTCKLQDLIKDVLRYGEEQLK [R6C]	2.25
HLELTYKLQDLIKDVLRYGEEQLK [R6Y]	1.9
HLELTTKLQDLIKDVLRYGEEQLK [R6T]	1.92
HLELTFKLQDLIKDVLRYGEEQLK [R6F]	1.9
HLELTHKLQDLIKDVLRYGEEQLK [R6H]	3.21
HLELTPKLQDLIKDVLRYGEEQLK [R6P]	1.79
HLELTRKLQDLIKDVLRYGEEQLE [K24E]	1.44
HLELTRKLQDLIKDVLRYGEEQLV [K24V]	4.54
HLELTRKLQDLIKDVLRYGEEQLS [K24S]	2.66
HLELTRKLQDLIKDVLRYGEEQLD [K24D]	1.84
HLELTRKLQDLIKDVLRYGEEQLY [K24Y]	2.8
HLELTRKLQDLIKDVLRYGEEQLL [K24L]	2.8
HLELTRKLQDLIKDVLRYGEEQLT [K24T]	1.6
HLELTRKLQDLIKDVLRYGEEQLC [K24C]	1.63
HLELTRKLQDLIKDVLRYGEEQLN [K24N]	3.69
HLELTRKLQDLIKDVLRYGEWQLK [E21W]	1.81
HLELTRVLQDLIKDVLRYGEEQLK [K7V]	1.74
HLELTRLLQDLIKDVLRYGEEQLK [K7L]	3.41

Variant	protein stability index
HLELTRDLQDLIKDVLRYGEEQLK [K7D]	2.27
HLELTRILQDLIKDVLRYGEEQLK [K7I]	2.06
HLELTRRLQDLIKDVLRYGEEQLK [K7R]	2.78
HLELTRYLQDLIKDVLRYGEEQLK [K7Y]	1.78
HLELTRGLQDLIKDVLRYGEEQLK [K7G]	2.68
HLELTRHLQDLIKDVLRYGEEQLK [K7H]	1.99
HLELTRWLQDLIKDVLRYGEEQLK [K7W]	1.87
HLELTRMLQDLIKDVLRYGEEQLK [K7M]	3.46
HMELTRKLQDLIKDVLRYGEEQLK [L2M]	5.22
HAELTRKLQDLIKDVLRYGEEQLK [L2A]	2.42
HRELTRKLQDLIKDVLRYGEEQLK [L2R]	2.11
HHELTRKLQDLIKDVLRYGEEQLK [L2H]	1.64
HNELTRKLQDLIKDVLRYGEEQLK [L2N]	2.76
HEELTRKLQDLIKDVLRYGEEQLK [L2E]	2.63
HFELTRKLQDLIKDVLRYGEEQLK [L2F]	1.95
HTELTRKLQDLIKDVLRYGEEQLK [L2T]	2.88
HQELTRKLQDLIKDVLRYGEEQLK [L2Q]	2.94
LLELTRKLQDLIKDVLRYGEEQLK [H1L]	1.55
MLELTRKLQDLIKDVLRYGEEQLK [H1M]	2.23
DLELTRKLQDLIKDVLRYGEEQLK [H1D]	2.68
NLELTRKLQDLIKDVLRYGEEQLK [H1N]	3.04
KLELTRKLQDLIKDVLRYGEEQLK [H1K]	1.46
TLELTRKLQDLIKDVLRYGEEQLK [H1T]	2.28
HLELTRKLQDLIKDVLRGGEEQLK [Y18G]	1.83

Variant	protein stability index
HLELTRKLQDLIKDVLRCGEEQLK [Y18C]	1.61
HLELTRKLQDLIKDVLRRGEEQLK [Y18R]	2.27
HLELTRKLQDLIKDVLRPGEEQLK [Y18P]	2.42
HLELTRKLQDLIKDVLRQGEEQLK [Y18Q]	3.96
HLELTRKLQDLIKDVLRNGEEQLK [Y18N]	1.84
HLELTRKLQALIKDVLRYGEEQLK [D10A]	3.54
HLELTRKLQILIKDVLRYGEEQLK [D10I]	3.93
HLELTRKLQNLIKDVLRYGEEQLK [D10N]	2.62
HLELTRKLQPLIKDVLRYGEEQLK [D10P]	1.99
HLELTRKLLDLIKDVLRYGEEQLK [Q9L]	2.26
HLELTRKLVDLIKDVLRYGEEQLK [Q9V]	2.56
HLELTRKLHDLIKDVLRYGEEQLK [Q9H]	1.65
HLELTRKLQDLIKVVLRYGEEQLK [D14V]	3.29
HLELTRKLQDLIKQVLRYGEEQLK [D14Q]	4.72
HLELTRKLQDLIKHVLRYGEEQLK [D14H]	3.31
HLELTRKLQDLIKAVLRYGEEQLK [D14A]	2.45
HLELTRKLQDLIKPVLRYGEEQLK [D14P]	2.97
HLELTRKLQDLIKSVLRYGEEQLK [D14S]	3.79
HLELTRKLQDLIKGVLRYGEEQLK [D14G]	1.68
HLELTRKLQDLIVDVLRYGEEQLK [K13V]	2.29
HLELTRKLQDLINDVLRYGEEQLK [K13N]	1.9
HLELTRKLQDLIEDVLRYGEEQLK [K13E]	2.37
HLELTRKLQDLISDVLRYGEEQLK [K13S]	2
HLELTRKLQDLIQDVLRYGEEQLK [K13Q]	1.59

Variant	protein stability index
HLELTRKLQDLILDVLRYGEEQLK [K13L]	4.09
HLELTRKLQDLIPDVLRYGEEQLK [K13P]	2.63
HLELTRKLQDLIGDVLRYGEEQLK [K13G]	1.78
HLELTRKLQDLIDDVLRYGEEQLK [K13D]	2.06
HLELTRKTQDLIKDVLRYGEEQLK [L8T]	2.39
HLELTRKEQDLIKDVLRYGEEQLK [L8E]	3.62
HLELTRKGQDLIKDVLRYGEEQLK [L8G]	2.46
HLELTRKQQDLIKDVLRYGEEQLK [L8Q]	3.3
HLELTRKFQDLIKDVLRYGEEQLK [L8F]	2.29
HLELTRKCQDLIKDVLRYGEEQLK [L8C]	3.07
HLELTRKYQDLIKDVLRYGEEQLK [L8Y]	1.64
HLELTRKAQDLIKDVLRYGEEQLK [L8A]	1.94
HLELTRKLQDLIKDVGRYGEEQLK [L16G]	2.61
HLELTRKLQDLIKDVDRYGEEQLK [L16D]	3.32
HLELTRKLQDLIKDVQRYGEEQLK [L16Q]	2.54
HLELTRKLQDLIKDVYRYGEEQLK [L16Y]	1.93
HLEKTRKLQDLIKDVLRYGEEQLK [L4K]	1.43
HLECTRKLQDLIKDVLRYGEEQLK [L4C]	4.01
HLEHTRKLQDLIKDVLRYGEEQLK [L4H]	3.01
HLEPTRKLQDLIKDVLRYGEEQLK [L4P]	1.58
HLEETRKLQDLIKDVLRYGEEQLK [L4E]	1.46
HLEFTRKLQDLIKDVLRYGEEQLK [L4F]	3.76

From the supplement of paper PMC10567573
